Data: PMC11503464, “Copper-61 is an advantageous alternative to gallium-68 for PET imaging of somatostatin receptor-expressing tumors: a head-to-head comparative preclinical study” (Frontiers in Nuclear Medicine, 2024)

Experiments:
[1] = test system: HEK-SST2 cells; test: Cellular uptake and distribution on intact HEK-SST2 cells; type: cell-based, human; conditions: specific uptake, after 4 h at 37°C
Description: At the defined time points, the medium was removed, and the cells were washed twice with ice-cold PBS. The cells were then treated twice for 5 min with ice-cold glycine solution (0.05 M, pH 2.8) to detach the cell membrane-bound fraction (acid released). Afterward, the cells containing the internalized fraction were detached using NaOH 1 M at 37°C and collected for measurement. [^68Ga]Ga-DOTA-TOC was evaluated as a reference.

[2] = test system: HEK-SST2 cells; test: Efflux from HEK-SST2 cells; type: cell-based, human
Description: The efflux was studied after 1 h incubation of the cells with the radiotracer at 37°C and the removal of the unbound fraction and the cell membrane-bound fraction, as described above (acid-wash). The cells were then incubated with fresh medium at 37°C either alone or with a competitor (1,000-fold excess of DOTA-TOC, 2.5 µM/well) for 10, 20, 30, 45, 60, 90, 120, 150, 180, and 240 min. At each time point, the efflux (or retention) was measured after the removal of the medium without or with the competitor and replacement with fresh pre-warmed (37°C) medium alone or with the competitor. At the end of the experiment, the cells were detached using 1 M NaOH at 37°C and collected to determine the remaining cell-associated radiotracer.

[3] = in vivo; conditions: female, athymic nude-Foxn1^nu/Foxn1^+, mouse, 200 pmol, total radioactivity
[4] = type: physicochemical; conditions: pH 7.4, log D(O/PBS pH 7.4)
Description: Briefly, the radiotracer (10 µl, 1 µM) was added to 1 ml of a 1:1 pre-saturated mixture of 1-octanol and phosphate-buffered saline (PBS pH 7.4). The solution was vortexed for 30 min and then centrifuged at 3,000 rpm to achieve phase separation. Aliquots of 0.1 ml from each phase were collected and measured in a γ-counter. The distribution coefficient was calculated as the average of the logarithmic values (n = 3) of the ratio between the radioactivity in the organic and PBS phases. [^68Ga]Ga-DOTA-TOC was used as a reference.

[5] = design: species or system mice; conditions: mouse, in vivo
Description: (§1) [^64Cu]CuCl2 was provided by the University Hospital Tübingen, Germany. […] OLINDA/EXM 1.0 was used to integrate the fitted time-activity curves and to estimate the organ and effective doses using the whole-body adult female model. For all the calculations, the assumption was made that the mouse biodistribution, determined as the %IA/organ, was the same as the human biodistribution. The dosimetry estimates were performed as previously described ([14]).

[6] = Stability of labeling solutions at room temperature by radio-HPLC; type: physicochemical; conditions: labeling solution stored at room temperature
Description: An aliquot of DOTA-TOC or NODAGA-TOC (3–6 nmol, 1 mg/ml in TraceSelect water) was diluted in 0.25–0.30 ml ammonium acetate (0.5 M, pH 8), followed by the addition of [^61Cu]CuCl2 (30–150 MBq). The reaction mixture was incubated for 15 min at 95°C (DOTA-TOC) or at room temperature (NODAGA-TOC). The pH of the reaction mixture was between 5 and 6. Quality control was performed on a Shimadzu 2020 HPLC system connected to a Berthold radio detector (Flow Star 513).

[7] = in vivo; design: species or system mice; conditions: BALB/c, mouse, total radioactivity
Description: as §1

Compound: C[C@@H](O)[C@@H]1NC(=O)[C@H](CCCCN)NC(=O)[C@@H](Cc2c[nH]c3ccccc23)NC(=O)[C@H](Cc2ccc(O)cc2)NC(=O)[C@@H](NC(=O)[C@@H](Cc2ccccc2)NC(=O)CCC(C(=O)O)N2CCN(CC(=O)O)CCN(CC(=O)O)CC2)CSSC[C@@H](C(=O)N[C@H](CO)[C@@H](C)O)NC1=O (some centres unmarked) [[^61Cu]Cu-NODAGA-TOC, metal not drawn]
- Cellular uptake (surface bound + internalized) [1]: 70.9 ± 3.5%
- Efflux plateau in the absence of a competitor ([2]; after 2 h, 37°C, no further increase at 4 h): approximately 40%
- Efflux with competitor ([2]; after 4 h at 37°C, DOTA-TOC (competitor) added to the medium): 80%
- tissue uptake at 1 h ([3]; Adrenal uptake): 0.99 ± 0.17 %ID/g
- tissue uptake at 4 h ([3]; Adrenal uptake): 0.67 ± 0.26 %ID/g
- tissue uptake at 1 h ([3]; Blood uptake): 0.22 ± 0.04 %ID/g
- tissue uptake at 4 h ([3]; Blood uptake): 0.04 ± 0.02 %ID/g
- tissue uptake at 1 h ([3]; Bone uptake): 0.46 ± 0.17 %ID/g
- tissue uptake at 4 h ([3]; Bone uptake): 0.31 ± 0.11 %ID/g
- tissue uptake at 1 h ([3]; Heart uptake): 0.16 ± 0.04 %ID/g
- tissue uptake at 4 h ([3]; Heart uptake): 0.07 ± 0.03 %ID/g
- tissue uptake at 1 h ([3]; Intestine uptake): 0.92 ± 0.12 %ID/g
- tissue uptake at 4 h ([3]; Intestine uptake): 0.65 ± 0.23 %ID/g
- tissue uptake at 1 h ([3]; Kidneys uptake): 12.5 ± 2.25 %ID/g
- tissue uptake at 4 h ([3]; Kidneys uptake): 4.36 ± 0.92 %ID/g
- tissue uptake at 1 h ([3]; Liver uptake): 0.29 ± 0.04 %ID/g
- tissue uptake at 4 h ([3]; Liver uptake): 0.27 ± 0.09 %ID/g
- tissue uptake at 1 h ([3]; Lung uptake): 1.09 ± 0.2 %ID/g
- tissue uptake at 4 h ([3]; Lung uptake): 0.51 ± 0.24 %ID/g
- tissue uptake at 1 h ([3]; Muscle uptake): 0.16 ± 0.06 %ID/g
- tissue uptake at 4 h ([3]; Muscle uptake): 0.07 ± 0.04 %ID/g
- tissue uptake at 1 h ([3]; Pancreas uptake): 2.59 ± 0.49 %ID/g
- tissue uptake at 4 h ([3]; Pancreas uptake): 0.6 ± 0.21 %ID/g
- tissue uptake at 1 h ([3]; Pituitary uptake): 3.8 ± 1.35 %ID/g
- tissue uptake at 4 h ([3]; Pituitary uptake): 2.97 ± 0.95 %ID/g
- tissue uptake at 1 h ([3]; SST2-tumor uptake): 8.88 ± 3.19 %ID/g
- tissue uptake at 4 h ([3]; SST2-tumor uptake): 7.39 ± 1.36 %ID/g
- tissue uptake at 1 h ([3]; Spleen uptake): 0.22 ± 0.05 %ID/g
- tissue uptake at 4 h ([3]; Spleen uptake): 0.1 ± 0.04 %ID/g
- tissue uptake at 1 h ([3]; Stomach uptake): 2.34 ± 0.43 %ID/g
- tissue uptake at 4 h ([3]; Stomach uptake): 1.22 ± 0.25 %ID/g
- logD [4]: -2.6 ± 0.24
- Total absorbed dose, Adrenals [5]: 6.77 × 10^−3 mGy/MBq
- Total absorbed dose, Brain [5]: 1.53 × 10^−5 mGy/MBq
- Total absorbed dose, Breasts [5]: 2.14 × 10^−4 mGy/MBq
- Total absorbed dose, Gallbladder wall [5]: 2.14 × 10^−3 mGy/MBq
- Total absorbed dose, Heart wall [5]: 1.02 × 10^−3 mGy/MBq
- Total absorbed dose, Kidneys [5]: 9.65 × 10^−2 mGy/MBq
- Total absorbed dose, LLI wall [5]: 8.28 × 10^−4 mGy/MBq
- Total absorbed dose, Liver [5]: 4.06 × 10^−3 mGy/MBq
- Total absorbed dose, Lungs [5]: 1.67 × 10^−3 mGy/MBq
- Total absorbed dose, Muscle [5]: 5.63 × 10^−4 mGy/MBq
- Total absorbed dose, Osteogenic cells [5]: 6.57 × 10^−4 mGy/MBq
- Total absorbed dose, Ovaries [5]: 1.19 × 10^−3 mGy/MBq
- Total absorbed dose, Pancreas [5]: 2.23 × 10^−2 mGy/MBq
- Total absorbed dose, Red marrow [5]: 1.07 × 10^−3 mGy/MBq
- Total absorbed dose, Skin [5]: 2.42 × 10^−4 mGy/MBq
- Total absorbed dose, Small intestine [5]: 1.12 × 10^−2 mGy/MBq
- Total absorbed dose, Spleen [5]: 3.49 × 10^−3 mGy/MBq
- Total absorbed dose, Stomach wall [5]: 5.34 × 10^−3 mGy/MBq
- Total absorbed dose, Thymus [5]: 1.98 × 10^−4 mGy/MBq
- Total absorbed dose, Thyroid [5]: 5.27 × 10^−5 mGy/MBq
- Total absorbed dose, Total body [5]: 1.27 × 10^−3 mGy/MBq
- Total absorbed dose, ULI wall [5]: 2.14 × 10^−3 mGy/MBq
- Total absorbed dose, Urinary bladder wall [5]: 3.48 × 10^−4 mGy/MBq
- Total absorbed dose, Uterus [5]: 1.03 × 10^−3 mGy/MBq
- Radiochemical purity (%) 2 h ([6]; 2 h after end of synthesis): 98 ± 1%
- Radiochemical purity (%) 4 h ([6]; 4 h after end of synthesis): 97 ± 1%

Compound: C[C@@H](O)[C@@H]1NC(=O)[C@H](CCCCN)NC(=O)[C@@H](Cc2c[nH]c3ccccc23)NC(=O)[C@H](Cc2ccc(O)cc2)NC(=O)[C@@H](NC(=O)[C@@H](Cc2ccccc2)NC(=O)CN2CCN(CC(=O)O)CCN(CC(=O)O)CCN(CC(=O)O)CC2)CSSC[C@@H](C(=O)N[C@H](CO)[C@@H](C)O)NC1=O [[^61Cu]Cu-DOTA-TOC, metal not drawn]
- tissue uptake at 1 h ([3]; Adrenal uptake): 2.05 ± 0.58 %ID/g
- tissue uptake at 4 h ([3]; Adrenal uptake): 1.14 ± 0.5 %ID/g
- tissue uptake at 1 h ([3]; Blood uptake): 0.38 ± 0.09 %ID/g
- tissue uptake at 4 h ([3]; Blood uptake): 0.21 ± 0.04 %ID/g
- tissue uptake at 1 h ([3]; Bone uptake): 0.6 ± 0.16 %ID/g
- tissue uptake at 4 h ([3]; Bone uptake): 0.5 ± 0.19 %ID/g
- tissue uptake at 4 h ([3]; Heart uptake): 0.49 ± 0.06 %ID/g
- tissue uptake at 4 h ([3]; Intestine uptake): 2.06 ± 0.92 %ID/g
- tissue uptake at 1 h ([3]; Kidneys uptake): 5.32 ± 0.58 %ID/g
- tissue uptake at 4 h ([3]; Kidneys uptake): 2.33 ± 0.39 %ID/g
- tissue uptake at 4 h ([3]; Liver uptake): 2.52 ± 0.56 %ID/g
- tissue uptake at 1 h ([3]; Lung uptake): 1.96 ± 0.16 %ID/g
- tissue uptake at 4 h ([3]; Lung uptake): 1.25 ± 0.08 %ID/g
- tissue uptake at 4 h ([3]; Muscle uptake): 0.16 ± 0.08 %ID/g
- tissue uptake at 1 h ([3]; Pancreas uptake): 4.29 ± 0.5 %ID/g
- tissue uptake at 4 h ([3]; Pancreas uptake): 0.68 ± 0.07 %ID/g
- tissue uptake at 1 h ([3]; Pituitary uptake): 3 ± 1.32 %ID/g
- tissue uptake at 4 h ([3]; Pituitary uptake): 2.43 ± 1.27 %ID/g
- tissue uptake at 1 h ([3]; SST2-tumor uptake): 7.44 ± 2.33 %ID/g
- tissue uptake at 4 h ([3]; SST2-tumor uptake): 6.85 ± 2.48 %ID/g
- tissue uptake at 1 h ([3]; Spleen uptake): 0.55 ± 0.08 %ID/g
- tissue uptake at 4 h ([3]; Spleen uptake): 0.37 ± 0.09 %ID/g
- tissue uptake at 1 h ([3]; Stomach uptake): 4.34 ± 0.5 %ID/g
- tissue uptake at 4 h ([3]; Stomach uptake): 2.09 ± 0.5 %ID/g

Compound: C[C@@H](O)[C@@H]1NC(=O)[C@H](CCCCN)NC(=O)[C@@H](Cc2c[nH]c3ccccc23)NC(=O)[C@H](Cc2ccc(O)cc2)NC(=O)[C@@H](NC(=O)[C@@H](Cc2ccccc2)NC(=O)CCC(C(=O)O)N2CCN(CC(=O)O)CCN(CC(=O)O)CC2)CSSC[C@@H](C(=O)N[C@H](CO)[C@@H](C)O)NC1=O (some centres unmarked) [[64Cu]Cu-NODAGA-TOC, metal not drawn]
- tissue uptake at 12 h ([7]; Adrenal uptake): 0.32 ± 0.2 %ID/g
- tissue uptake at 24 h ([7]; Adrenal uptake): 0.18 ± 0.1 %ID/g
- tissue uptake at 12 h ([7]; Femur uptake): 0.11 ± 0.04 %ID/g
- tissue uptake at 12 h ([7]; Intestine uptake): 0.57 ± 0.07 %ID/g
- tissue uptake at 24 h ([7]; Intestine uptake): 0.31 ± 0.05 %ID/g
- tissue uptake at 12 h ([7]; Kidneys uptake): 2.46 ± 0.85 %ID/g
- tissue uptake at 24 h ([7]; Kidneys uptake): 0.66 ± 0.15 %ID/g
- tissue uptake at 12 h ([7]; Liver uptake): 0.37 ± 0.09 %ID/g
- tissue uptake at 24 h ([7]; Liver uptake): 0.26 ± 0.02 %ID/g
- tissue uptake at 12 h ([7]; Lung uptake): 0.51 ± 0.12 %ID/g
- tissue uptake at 24 h ([7]; Lung uptake): 0.27 ± 0.09 %ID/g
- tissue uptake at 12 h ([7]; Pancreas uptake): 0.14 ± 0.03 %ID/g
- tissue uptake at 12 h ([7]; Pituitary uptake): 0.48 ± 0.25 %ID/g
- tissue uptake at 24 h ([7]; Pituitary uptake): 0.43 ± 0.29 %ID/g
- tissue uptake at 12 h ([7]; Stomach uptake): 0.75 ± 0.19 %ID/g
- tissue uptake at 24 h ([7]; Stomach uptake): 0.26 ± 0.04 %ID/g
